According to patent publication US20250042994A1 (HAINAN SIMCERE ZAIMING PHARMACEUTICAL, published 2025):

T1: cynomolgus monkey CD19 on peripheral blood B cells (cynomolgus monkey (Macaca fascicularis), UniProt A0A2K5W8L9 20-557)
T1 construct: whole, on cells; also called cynomolgus monkey B cells
T1 sequence: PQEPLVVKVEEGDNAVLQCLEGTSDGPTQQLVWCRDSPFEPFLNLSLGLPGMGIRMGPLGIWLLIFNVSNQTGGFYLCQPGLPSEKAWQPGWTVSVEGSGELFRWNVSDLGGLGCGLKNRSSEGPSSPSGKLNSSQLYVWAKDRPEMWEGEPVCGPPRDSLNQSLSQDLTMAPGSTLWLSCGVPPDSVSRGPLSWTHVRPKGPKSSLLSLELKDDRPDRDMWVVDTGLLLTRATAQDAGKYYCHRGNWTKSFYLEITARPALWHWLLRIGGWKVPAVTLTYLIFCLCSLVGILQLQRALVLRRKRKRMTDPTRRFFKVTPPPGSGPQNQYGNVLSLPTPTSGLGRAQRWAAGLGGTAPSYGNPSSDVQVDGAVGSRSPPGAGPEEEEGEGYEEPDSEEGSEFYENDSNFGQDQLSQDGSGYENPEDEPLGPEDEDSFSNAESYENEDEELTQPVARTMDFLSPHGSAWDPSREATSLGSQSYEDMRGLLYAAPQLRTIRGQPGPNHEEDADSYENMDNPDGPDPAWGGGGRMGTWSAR

T2: human CD19 on Raji cells (human, UniProt P15391 20-556)
T2 construct: whole, on cells
T2 sequence (looked up): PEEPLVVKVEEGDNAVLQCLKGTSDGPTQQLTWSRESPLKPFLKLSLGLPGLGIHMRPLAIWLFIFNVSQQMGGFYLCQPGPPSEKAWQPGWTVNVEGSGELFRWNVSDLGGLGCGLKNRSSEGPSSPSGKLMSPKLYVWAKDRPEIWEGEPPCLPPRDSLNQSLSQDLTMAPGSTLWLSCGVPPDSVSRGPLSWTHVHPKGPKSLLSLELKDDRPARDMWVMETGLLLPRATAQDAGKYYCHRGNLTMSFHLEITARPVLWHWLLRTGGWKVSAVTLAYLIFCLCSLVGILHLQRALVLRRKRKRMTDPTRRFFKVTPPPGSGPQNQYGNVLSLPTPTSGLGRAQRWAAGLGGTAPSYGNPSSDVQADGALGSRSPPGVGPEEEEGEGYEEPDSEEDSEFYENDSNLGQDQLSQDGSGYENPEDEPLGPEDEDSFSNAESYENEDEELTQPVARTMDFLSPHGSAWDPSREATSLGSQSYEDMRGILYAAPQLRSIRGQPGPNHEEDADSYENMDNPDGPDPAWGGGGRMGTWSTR

T3: human CD19 on CHO-K1-human CD19 cells (human, UniProt P15391 20-556)
T3 construct: whole, on cells; also called CHO-K1-human CD19-2C8
T3 sequence (looked up): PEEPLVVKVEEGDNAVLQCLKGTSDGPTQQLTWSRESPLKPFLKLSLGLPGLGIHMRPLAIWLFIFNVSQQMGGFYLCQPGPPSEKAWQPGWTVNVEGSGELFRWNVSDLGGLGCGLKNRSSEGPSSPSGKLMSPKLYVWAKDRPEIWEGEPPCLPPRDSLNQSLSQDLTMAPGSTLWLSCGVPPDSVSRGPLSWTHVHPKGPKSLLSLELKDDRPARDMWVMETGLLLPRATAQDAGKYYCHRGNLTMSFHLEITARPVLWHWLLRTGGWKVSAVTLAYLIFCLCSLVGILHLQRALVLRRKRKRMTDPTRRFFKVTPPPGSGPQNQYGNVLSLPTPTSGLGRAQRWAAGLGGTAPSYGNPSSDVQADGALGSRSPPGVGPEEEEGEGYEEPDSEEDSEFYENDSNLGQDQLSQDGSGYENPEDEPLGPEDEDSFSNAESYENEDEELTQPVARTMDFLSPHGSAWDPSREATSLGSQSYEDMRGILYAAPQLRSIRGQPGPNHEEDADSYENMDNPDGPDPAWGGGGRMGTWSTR


Columns and labels:
[1] = target: T4, monkey CD19 on HEK293T-monkey CD19 cells (monkey); assay: FACS on HEK293T-monkey CD19 cells
T4 construct: whole, on cells
Outline: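 Antibody binding was read as MFI by flow cytometry and EC50 was taken from curve fitting. Before that, cells at 2×10⁶ cells/ml in PBS with 2% (w/w) BSA were exposed to samples for 2 h on ice and washed. Parental HEK293T cells were tested the same way.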

[2] = target: T1, cynomolgus monkey CD19 on peripheral …; assay: FACS, cynomolgus PBMC, CD20+ B cells
Procedure: The monkey peripheral blood mononuclear cells were extracted from fresh cynomolgus monkey peripheral blood (purchased from Shanghai Medicilon Inc.) according to the instructions of Ficoll-Paque Plus (purchased from GE Healthcae, catalog number: 171440-02). After the cell suspension was centrifuged, the cells were resuspended in PBS containing 1% BSA, and then the cells were counted. […] The mixture was incubated for 1 h at room temperature. After washing the cells three times, APC-labeled secondary antibody anti-human IgG Fc (catalog number: 409306, purchased from Biolegend) was added. After incubation at room temperature in the dark for 30 minutes, the cells were washed 5 times, gently resuspended with PBS containing 1% BSA, and detected and analyzed by FACS (FACS Canto™, purchased from BD Company), in which CD20 was used as a marker of B cells to gate the CD20-positive B cell population, the proportion of the chimeric antibody-labeled positive cells was analyzed, and the proportion of the chimeric antibody positive cell population to B cell population was calculated after treatments with the chimeric antibodies at the concentrations of 100 nM, 10 nM and 1 nM, respectively.

human CD19 on Raji cells = target: T2, human CD19 on Raji cells; assay: FACS on Raji cells
[3] = target: T3, human CD19 on CHO-K1-human CD19 cells; assay: FACS on CHO-K1-human CD19 cells

| Binder | Maximum mean fluorescence intensity [1] | Proportion of chimeric antibody positive cells to B cells (%) at 1 nM [2] [%] | Proportion of chimeric antibody positive cells to B cells (%) at 10 nM [2] [%] | Proportion of chimeric antibody positive cells to B cells (%) at 100 nM [2] [%] | EC50 (human CD19 on Raji cells) [nM] | Maximum mean fluorescence intensity (human CD19 on Raji cells) | EC50 [3] [nM] | Maximum mean fluorescence intensity [3] | EC50 [1] [nM] |
| --- | --- | --- | --- | --- | --- | --- | --- | --- | --- |
| F3.74.4 (antibody, human IgG1, V domains shown, human-murine chimeric antibody, human IgG1) VH: QVQLQQSGAELVRPGASVTLSCKASGYTFTDYEMHWVKQTPVHGLEWIGGIAPETGLTTYNQKFEDKAILTADKSSRTAYMELRSLTSEDSAVYFCNPNNYGLWGTGTTVTVSS VL: not shown | 121 | 1 | 1 | 1 | 3.41 | 30100 | 4.55 | 3850 | – |
| F3.81.2 (antibody, human IgG1, V domains shown, human-murine chimeric antibody, human IgG1) VH: QVQLQQPGAELVMPGASVKLSCKASAYTFTNYWMHWVKQRPGHGLEWIGEIDPSDSYTDYNQNFKAKATLTVDKSSSTAYMQLSSLTSEDSAVYYCARLMGRYFDVWGTGTTVTVSS VL: DIVMTQSHKFMSTSVGDRVSITCKASQDVSAAVAWYQQKPGQSPKLLINSASYRYTGVPDRFTGSGSGTDFTFTISSVQAEDLAVYYCQQHYSTPLTFGAGTKLELR | 153000 | 7 | 16 | 38 | 0.68 | 31300 | 1.27 | 59600 | 3.44 |
| F3.83.9 (antibody, human IgG1, V domains shown, human-murine chimeric antibody, human IgG1) VH: DVQLQESGPGLVKPSQSLSLTCSVTGYSITSGYYWNWIRQFPGNKLEWMGYISYDGGNNYNPSLKNRISITRDTSKNQFFLKLNSVTTEDTATYFCAREDYSNWYFDVWGTGTTVTVSS VL: DIVLTQSPASLAVSLGQRATISCRASQSVSKSSYSYMHWYQQKPGQSPKLLIKYASILKSGVPARFSGSGSGTDFTLNIHPVEEEDTATYYCQHSWEIPWTFGGGTKLEIK | 198000 | 58 | 97 | 99 | 1.75 | 29700 | 1.34 | 52200 | 1.12 |

Further lines, results first:

| Maximum mean fluorescence intensity [1] | Proportion of chimeric antibody positive cells to B cells (%) at 1 nM [2] [%] | Proportion of chimeric antibody positive cells to B cells (%) at 10 nM [2] [%] | Proportion of chimeric antibody positive cells to B cells (%) at 100 nM [2] [%] | EC50 (human CD19 on Raji cells) [nM] | Maximum mean fluorescence intensity (human CD19 on Raji cells) | EC50 [3] [nM] | Maximum mean fluorescence intensity [3] | EC50 [1] [nM] | Binder |
| --- | --- | --- | --- | --- | --- | --- | --- | --- | --- |
| 176 | 1 | 1 | 6 | 0.96 | 28800 | 0.39 | 34100 | – | F3.113.16 (antibody, human IgG1, V domains shown, human-murine chimeric antibody, human IgG1) VH: QVQLQQPGAELVKPGASVKLSCKASGYTFTNYWMQWVKQRPGQGLEWIGEIDPSDSYINYNQKFKGKATLTADTSSSTAYMQLSSLTYEDSAVYYCARPVTVPWYFDVWGTGTTVTVSS VL: EIVLTQSPTTMAASPGEKITITCSATSSISSNYLHWYQQKPGFSPKLLIYRTSNLASGVPARFSGSGSGTSYSLTIGTMEAEDVATYYCQQGSAIPRIFTFGSGTKLEIK |
| 148 | 1 | 1 | 1 | 0.44 | 29900 | 0.57 | 3980 | – | F3.109.1 (antibody, human IgG1, V domains shown, human-murine chimeric antibody, human IgG1) VH: EVQLQQSGAELVRPGSSVKMSCKTSGYTFTSYGINWVKQRPGQGLEWIGYIYIGNDYTEFNEKFKGKATLTSDTSSSTAYMQLSSLTSEDSAIYFCARFYSNSDPMDYWGHGTSVTVSS VL: not shown |
